Measurements: US7378087

Experiments:
[1] = target: H-2D^b MHC class I molecule (mouse) (UniProt P01899); test: FACS on RMA-S cells; IFN +, peptide -, hβ2m -
[2] = target: H-2D^b MHC class I molecule (mouse) (UniProt P01899); test: FACS on RMA-S cells; IFN +, peptide +, hβ2m +
[3] = target: H-2D^b MHC class I molecule (mouse) (UniProt P01899); test: FACS on RMA-S cells; IFN -, peptide -, hβ2m -
[4] = target: H-2D^b MHC class I molecule (mouse) (UniProt P01899); test: FACS on RMA cells; IFN +, peptide +, hβ2m +
[5] = target: H-2D^b MHC class I molecule (mouse) (UniProt P01899); test: FACS on RMA cells; IFN +, peptide +, hβ2m -
[6] = target: H-2D^b MHC class I molecule (mouse) (UniProt P01899); test: FACS on RMA cells; IFN -, peptide -, hβ2m -
[7] = target: H-2D^b MHC class I molecule (mouse) (UniProt P01899); test: FACS on RMA-S cells; IFN +, peptide -, hβ2m +
[8] = target: H-2D^b MHC class I molecule (mouse) (UniProt P01899); test: FACS on CMT.64 cells; IFN -, peptide -, hβ2m -
[9] = target: H-2D^b MHC class I molecule (mouse) (UniProt P01899); test: FACS on RMA-S cells; IFN -, peptide +, hβ2m +
[10] = target: H-2D^b MHC class I molecule (mouse) (UniProt P01899); test: FACS on RMA cells; IFN +, peptide -, hβ2m +
[11] = target: H-2D^b MHC class I molecule (mouse) (UniProt P01899); test: FACS on CMT.64 cells; IFN * (so in the source), peptide +, hβ2m +
[12] = target: H-2D^b MHC class I molecule (mouse) (UniProt P01899); test: FACS on RMA cells; IFN -, peptide +, hβ2m +
[13] = target: H-2D^b MHC class I molecule (mouse) (UniProt P01899); test: FACS on CMT.64 cells; IFN +, peptide -, hβ2m -
[14] = target: H-2D^b MHC class I molecule (mouse) (UniProt P01899); test: FACS on CMT.64 cells; IFN -, peptide +, hβ2m +
[15] = target: H-2D^b MHC class I molecule (mouse) (UniProt P01899); test: FACS on RMA cells; IFN +, peptide -, hβ2m -
[16] = target: H-2D^b MHC class I molecule (mouse) (UniProt P01899); test: FACS on RMA-S cells; IFN +, peptide +, hβ2m -
[17] = target: H-2D^b MHC class I molecule (mouse) (UniProt P01899); test: FACS on CMT.64 cells treated with IFN-γ
[18] = target: H-2D^b MHC class I molecule (mouse) (UniProt P01899); test: single-colour FACS on RMA-S cells (linear, 5000 events)
[19] = target: H-2D^b MHC class I molecule (mouse) (UniProt P01899); test: FACS on CMT.64 cells
[20] = target: H-2D^b MHC class I molecule (mouse) (UniProt P01899); test: FACS on CMT.2-10 cells (rTAP2 transfectant)
[21] = target: H-2D^b MHC class I molecule (mouse) (UniProt P01899); test: FACS on CMT.1-10 cells (rTAP1 transfectant)
[22] = target: H-2D^b MHC class I molecule (mouse) (UniProt P01899); test: FACS on CMT.2-1 cells (rTAP2 transfectant)
[23] = target: H-2D^b MHC class I molecule (mouse) (UniProt P01899); test: FACS on CMT.1-4 cells (rTAP1 transfectant)
[24] = target: H-2D^b MHC class I molecule (mouse) (UniProt P01899); test: FACS on CMT.12-21 cells (rTAP1,2 transfectant)
[25] = target: H-2D^b MHC class I molecule (mouse) (UniProt P01899); test: single-colour FACS on RMA-S.ptml cells (TAP-1 antisense)
[26] = target: human β2-microglobulin (human) (UniProt P61769); test: FACS on RMA cells; IFN -, peptide +, hβ2m + (hβ2m bound on the cell surface)
[27] = target: human β2-microglobulin (human) (UniProt P61769); test: FACS on RMA cells; IFN +, peptide -, hβ2m - (no hβ2m added: background)
[28] = target: human β2-microglobulin (human) (UniProt P61769); test: FACS on RMA-S cells; IFN -, peptide +, hβ2m + (hβ2m bound on the cell surface)
[29] = target: human β2-microglobulin (human) (UniProt P61769); test: FACS on RMA-S cells; IFN -, peptide -, hβ2m - (no hβ2m added: background)
[30] = target: human β2-microglobulin (human) (UniProt P61769); test: FACS on RMA cells; IFN -, peptide -, hβ2m - (no hβ2m added: background)
[31] = target: human β2-microglobulin (human) (UniProt P61769); test: FACS on RMA cells; IFN +, peptide +, hβ2m + (hβ2m bound on the cell surface)
[32] = target: human β2-microglobulin (human) (UniProt P61769); test: FACS on RMA cells; IFN +, peptide +, hβ2m - (no hβ2m added: background)
[33] = target: human β2-microglobulin (human) (UniProt P61769); test: FACS on RMA-S cells; IFN +, peptide +, hβ2m + (hβ2m bound on the cell surface)
[34] = target: human β2-microglobulin (human) (UniProt P61769); test: FACS on RMA cells; IFN +, peptide -, hβ2m + (hβ2m bound on the cell surface)
[35] = target: human β2-microglobulin (human) (UniProt P61769); test: FACS on RMA-S cells; IFN +, peptide -, hβ2m + (hβ2m bound on the cell surface)
[36] = target: human β2-microglobulin (human) (UniProt P61769); test: FACS on RMA-S cells; IFN +, peptide -, hβ2m - (no hβ2m added: background)
[37] = target: human β2-microglobulin (human) (UniProt P61769); test: FACS on RMA-S cells; IFN +, peptide +, hβ2m - (no hβ2m added: background)
[38] = target: H-2K^b MHC class I molecule (mouse) (UniProt P01901); test: FACS on CMT.64 cells treated with IFN-γ
[39] = target: H-2K^b MHC class I molecule (mouse) (UniProt P01901); test: single-colour FACS on RMA-S cells (linear, 5000 events)
[40] = target: H-2K^b MHC class I molecule (mouse) (UniProt P01901); test: FACS on CMT.64 cells
[41] = target: H-2K^b MHC class I molecule (mouse) (UniProt P01901); test: FACS on CMT.2-10 cells (rTAP2 transfectant)
[42] = target: H-2K^b MHC class I molecule (mouse) (UniProt P01901); test: FACS on CMT.1-10 cells (rTAP1 transfectant)
[43] = target: H-2K^b MHC class I molecule (mouse) (UniProt P01901); test: FACS on CMT.2-1 cells (rTAP2 transfectant)
[44] = target: H-2K^b MHC class I molecule (mouse) (UniProt P01901); test: FACS on CMT.1-4 cells (rTAP1 transfectant)
[45] = target: H-2K^b MHC class I molecule (mouse) (UniProt P01901); test: FACS on CMT.12-21 cells (rTAP1,2 transfectant)
[46] = target: H-2K^b MHC class I molecule (mouse) (UniProt P01901); test: FACS on CMT.1-1 cells (rTAP1 transfectant)
[47] = target: H-2K^b MHC class I molecule (mouse) (UniProt P01901); test: FACS on CMT.neo cells (vector control)
[48] = target: H-2K^b MHC class I molecule (mouse) (UniProt P01901); test: single-colour FACS on RMA-S.ptml cells (TAP-1 antisense)

UniProt P01899, sequence (P01899 25-309 limits assumed): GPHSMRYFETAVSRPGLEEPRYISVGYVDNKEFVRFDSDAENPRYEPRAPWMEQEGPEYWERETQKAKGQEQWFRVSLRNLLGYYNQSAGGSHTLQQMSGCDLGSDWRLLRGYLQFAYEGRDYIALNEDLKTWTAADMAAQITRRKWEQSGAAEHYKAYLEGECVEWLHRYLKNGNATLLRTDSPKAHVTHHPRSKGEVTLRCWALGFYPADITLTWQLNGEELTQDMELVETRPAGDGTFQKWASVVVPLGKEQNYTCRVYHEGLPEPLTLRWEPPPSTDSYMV
UniProt P01901, sequence (P01901 22-305 limits assumed): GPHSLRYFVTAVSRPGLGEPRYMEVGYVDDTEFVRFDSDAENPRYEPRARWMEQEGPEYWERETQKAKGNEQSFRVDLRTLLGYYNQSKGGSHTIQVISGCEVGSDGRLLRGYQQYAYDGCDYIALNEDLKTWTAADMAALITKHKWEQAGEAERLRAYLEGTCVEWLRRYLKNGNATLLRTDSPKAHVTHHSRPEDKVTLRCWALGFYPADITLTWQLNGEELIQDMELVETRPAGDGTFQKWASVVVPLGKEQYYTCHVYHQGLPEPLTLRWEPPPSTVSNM
UniProt P61769, sequence (P61769 21-119 limits assumed): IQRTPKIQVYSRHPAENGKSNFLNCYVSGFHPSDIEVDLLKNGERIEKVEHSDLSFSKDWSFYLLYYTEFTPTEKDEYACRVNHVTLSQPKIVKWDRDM

Substance: 28-11-5s anti H-2 D^b (α1+α2) monoclonal antibody
- fluorescence units (arbitrary fluorescence units) [1]: 4
- fluorescence units (arbitrary fluorescence units) [2]: 2
- fluorescence units (arbitrary fluorescence units) [3]: 2
- fluorescence units (arbitrary fluorescence units) [4]: 515
- fluorescence units (arbitrary fluorescence units) [5]: 449
- fluorescence units (arbitrary fluorescence units) [6]: 173
- fluorescence units (arbitrary fluorescence units) [7]: 2
- fluorescence units (arbitrary fluorescence units) [8]: 3
- fluorescence units (arbitrary fluorescence units) [9]: 2
- fluorescence units (arbitrary fluorescence units) [10]: 549
- fluorescence units (arbitrary fluorescence units) [11]: 53
- fluorescence units (arbitrary fluorescence units) [12]: 182
- fluorescence units (arbitrary fluorescence units) [13]: 58
- fluorescence units (arbitrary fluorescence units) [14]: 5
- fluorescence units (arbitrary fluorescence units) [15]: 430
- fluorescence units (arbitrary fluorescence units) [16]: 1

Substance: 28-14-8s anti H-2 D^b (α3) monoclonal antibody
- immunofluorescence intensity (negative control subtracted) [17]: 1100
- MEAN FLUORESCENCE [18]: 130
- immunofluorescence intensity (negative control subtracted) [19]: 18
- immunofluorescence intensity (negative control subtracted) [20]: 39
- immunofluorescence intensity (negative control subtracted) [21]: 68
- immunofluorescence intensity (negative control subtracted) [22]: 10
- immunofluorescence intensity (negative control subtracted) [23]: 164
- immunofluorescence intensity (negative control subtracted) [24]: 103
- MEAN FLUORESCENCE [25]: 96.7

Substance: BBM.1 monoclonal antibody against human β2m
- fluorescence units (arbitrary fluorescence units) [26]: 274
- fluorescence units (arbitrary fluorescence units) [27]: 6
- fluorescence units (arbitrary fluorescence units) [28]: 86
- fluorescence units (arbitrary fluorescence units) [29]: 1
- fluorescence units (arbitrary fluorescence units) [30]: 1
- fluorescence units (arbitrary fluorescence units) [31]: 606
- fluorescence units (arbitrary fluorescence units) [32]: 4
- fluorescence units (arbitrary fluorescence units) [33]: 262
- fluorescence units (arbitrary fluorescence units) [34]: 406
- fluorescence units (arbitrary fluorescence units) [35]: 76
- fluorescence units (arbitrary fluorescence units) [36]: 14
- fluorescence units (arbitrary fluorescence units) [37]: 14

Substance: Y-3 anti-H-2K^b monoclonal antibody
- immunofluorescence intensity (negative control subtracted) [38]: 590
- MEAN FLUORESCENCE [39]: 222
- immunofluorescence intensity (negative control subtracted) [40]: 0
- immunofluorescence intensity (negative control subtracted) [41]: 48
- immunofluorescence intensity (negative control subtracted) [42]: 36
- immunofluorescence intensity (negative control subtracted) [43]: 3
- immunofluorescence intensity (negative control subtracted) [44]: 64
- immunofluorescence intensity (negative control subtracted) [45]: 22
- immunofluorescence intensity (negative control subtracted) [46]: 62
- immunofluorescence intensity (negative control subtracted) [47]: 0.1
- MEAN FLUORESCENCE [48]: 149
